What was measured:
[1] = target: ST2 receptor on murine MC/9 mast cells (murine (MC/9 mast cell line)) (UniProt P14719); assay: cell-based or functional assay
[2] = target: T1, whole human interleukin 33 (IL-33aa1-270)
T1 chain: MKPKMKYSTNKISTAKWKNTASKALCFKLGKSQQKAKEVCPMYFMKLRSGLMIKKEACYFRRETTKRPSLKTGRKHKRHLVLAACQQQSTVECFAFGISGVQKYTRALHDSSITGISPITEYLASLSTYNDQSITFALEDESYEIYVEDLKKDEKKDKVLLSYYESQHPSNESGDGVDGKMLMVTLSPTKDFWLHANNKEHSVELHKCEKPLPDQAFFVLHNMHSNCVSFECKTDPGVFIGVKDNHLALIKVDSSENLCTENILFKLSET

[3] = target: T2, truncated human IL-33 (IL-33aa112-270)
T2 chain: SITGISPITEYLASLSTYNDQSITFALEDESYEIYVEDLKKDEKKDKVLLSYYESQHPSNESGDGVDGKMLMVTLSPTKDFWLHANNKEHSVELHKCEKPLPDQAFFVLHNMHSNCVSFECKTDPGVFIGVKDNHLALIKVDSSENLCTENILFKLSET

Sequence of UniProt P14719 (P14719 27-567): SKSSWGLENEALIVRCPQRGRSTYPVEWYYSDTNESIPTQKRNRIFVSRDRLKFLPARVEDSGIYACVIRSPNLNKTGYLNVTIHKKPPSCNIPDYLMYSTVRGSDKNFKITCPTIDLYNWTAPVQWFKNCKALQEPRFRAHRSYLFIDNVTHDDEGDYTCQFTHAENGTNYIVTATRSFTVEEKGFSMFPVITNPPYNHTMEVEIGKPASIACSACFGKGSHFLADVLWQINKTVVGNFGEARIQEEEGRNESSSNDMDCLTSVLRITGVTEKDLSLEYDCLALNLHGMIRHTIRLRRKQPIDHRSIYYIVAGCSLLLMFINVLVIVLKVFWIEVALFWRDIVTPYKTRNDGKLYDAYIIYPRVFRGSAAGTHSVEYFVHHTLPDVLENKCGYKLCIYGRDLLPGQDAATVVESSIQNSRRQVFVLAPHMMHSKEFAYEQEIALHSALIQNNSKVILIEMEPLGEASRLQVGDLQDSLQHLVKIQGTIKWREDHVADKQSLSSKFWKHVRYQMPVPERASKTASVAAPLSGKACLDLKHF

IL-33aa95-270 (from UniProt O95760 95-270) (ligand)
secretion of IL-6 by MC/9 mast cells (ELISA), relative to whole IL-33 (fold vs whole IL-33) [1]: 4

IL-33aa109-270 (from UniProt O95760 109-270) (ligand)
secretion of IL-6 by MC/9 mast cells (ELISA), relative to whole IL-33 (fold vs whole IL-33) [1]: 4

IL-33aa99-270 (from UniProt O95760 99-270) (ligand)
secretion of IL-6 by MC/9 mast cells (ELISA), relative to whole IL-33 (fold vs whole IL-33) [1]: 4

B1: human cathepsin G (protein)
chain: IIGGRESRPHSRPYMAYLQIQSPAGQSRCGGFLVREDFVLTAAHCWGSNINVTLGAHNIQRRENTQQHITARRAIRHPQYNQRTIQNDIMLLQLSRRVRRNRNVNPVALPRAQEGLRPGTLCTVAGWGRVSMRRGTDTLREVQLRVQRDRQCLRIFGSYDPRRQICVGDRRERKAAFKGDSGGPLLCNNVAHGIVSYGKSSGVPPEVFTRVSSFLPWIRTTMRS
cleavage in vitro, SDS-PAGE and western blot [2]: Human IL-33 is the target of the recombinant proteases Cathepsin G (Cat G), Elastase 2 (Elastase), and Proteinase 3 (PR3), which generate, in vitro, the three mature fragments IL-33aa95-270, IL-33aa99-270 and IL-33aa109-270
cleavage in vitro, western blot [3]: the truncated form IL-33aa112-270, which remains intact in the presence of these proteases

B2: leukocyte proteinase 3 (protein)
chain: IVGGHEAQPHSRPYMASLQMRGNPGSHFCGGTLIHPSFVLTAAHCLRDIPQRLVNVVLGAHNVRTQEPTQQHFSVAQVFLNNYDAENKLNDVLLIQLSSPANLSASVATVQLPQQDQPVPHGTQCLAMGWGRVGAHDPPAQVLQELNVTVVTFFCRPHNICTFVPRRKAGICFGDSGGPLICDGIIQGIDSFVIWGCATRLFPDFFTRVALYVDWIRSTLR
cleavage in vitro, SDS-PAGE and western blot [2]: Human IL-33 is the target of the recombinant proteases Cathepsin G (Cat G), Elastase 2 (Elastase), and Proteinase 3 (PR3), which generate, in vitro, the three mature fragments IL-33aa95-270, IL-33aa99-270 and IL-33aa109-270
cleavage in vitro, western blot [3]: the truncated form IL-33aa112-270, which remains intact in the presence of these proteases

B3: neutrophil elastase 2 (protein)
chain: IVGGRRARPHAWPFMVSLQLRGGHFCGATLIAPNFVMSAAHCVANVNVRAVRVVLGAHNLSRREPTRQVFAVQRIFENGYDPVNLLNDIVILQLNGSATINANVQVAQLPAQGRRLGNGVQCLAMGWGLLGRNRGIASVLQELNVTVVTSLCRRSNVCTLVRGRQAGVCFGDSGSPLVCNGLIHGIASFVRGGCASGLYPDAFAPVAQFVNWIDSIIQ
cleavage in vitro, SDS-PAGE and western blot [2]: Human IL-33 is the target of the recombinant proteases Cathepsin G (Cat G), Elastase 2 (Elastase), and Proteinase 3 (PR3), which generate, in vitro, the three mature fragments IL-33aa95-270, IL-33aa99-270 and IL-33aa109-270
cleavage in vitro, western blot [3]: the truncated form IL-33aa112-270, which remains intact in the presence of these proteases

Reference: patent US20140099280A1
